Data published in article PMC12319226 (Frontiers in Bioinformatics, 2025).
Where “and” joins values, the source holds several entries; their conditions need not be identical. Identical values can stand only once.

T1: fHbp m001927 (Neisseria meningitidis; fHbp …, chimera)
T1 chain: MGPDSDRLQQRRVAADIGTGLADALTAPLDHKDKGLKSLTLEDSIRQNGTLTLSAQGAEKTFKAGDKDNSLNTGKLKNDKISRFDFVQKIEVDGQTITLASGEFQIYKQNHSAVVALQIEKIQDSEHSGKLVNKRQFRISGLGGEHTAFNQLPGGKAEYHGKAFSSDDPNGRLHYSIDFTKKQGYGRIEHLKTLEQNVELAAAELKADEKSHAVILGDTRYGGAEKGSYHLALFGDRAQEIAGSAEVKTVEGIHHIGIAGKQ

T2: fHbp m001928 (Neisseria meningitidis; fHbp …, chimera)
T2 chain: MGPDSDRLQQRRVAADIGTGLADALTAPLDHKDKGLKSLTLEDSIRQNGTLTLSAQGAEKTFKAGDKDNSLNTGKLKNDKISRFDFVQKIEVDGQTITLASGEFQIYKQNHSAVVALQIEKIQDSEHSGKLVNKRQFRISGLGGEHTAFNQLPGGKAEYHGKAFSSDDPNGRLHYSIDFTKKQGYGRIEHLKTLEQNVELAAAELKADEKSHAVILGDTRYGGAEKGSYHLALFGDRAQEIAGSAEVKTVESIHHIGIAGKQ

T3: fHbp m002332 (Neisseria meningitidis; fHbp …, chimera)
T3 chain: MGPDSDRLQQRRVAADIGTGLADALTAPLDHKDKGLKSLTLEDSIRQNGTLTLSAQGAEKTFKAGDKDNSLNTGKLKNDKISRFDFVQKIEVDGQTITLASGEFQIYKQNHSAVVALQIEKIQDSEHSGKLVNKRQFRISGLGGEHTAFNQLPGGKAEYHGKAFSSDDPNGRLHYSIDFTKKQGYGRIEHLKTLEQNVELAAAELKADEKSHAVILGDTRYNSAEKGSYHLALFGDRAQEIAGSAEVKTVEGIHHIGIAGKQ

T4: fHbp m002389 (Neisseria meningitidis; fHbp …, chimera)
T4 chain: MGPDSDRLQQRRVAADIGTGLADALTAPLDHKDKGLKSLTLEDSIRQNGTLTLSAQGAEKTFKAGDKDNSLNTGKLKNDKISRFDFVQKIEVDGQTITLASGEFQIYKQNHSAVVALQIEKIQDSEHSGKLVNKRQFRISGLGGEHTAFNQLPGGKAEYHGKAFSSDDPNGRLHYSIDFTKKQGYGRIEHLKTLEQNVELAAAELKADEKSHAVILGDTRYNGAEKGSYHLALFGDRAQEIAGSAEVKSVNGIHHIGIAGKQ

T5: fHbp m002392 (Neisseria meningitidis; fHbp …, chimera)
T5 chain: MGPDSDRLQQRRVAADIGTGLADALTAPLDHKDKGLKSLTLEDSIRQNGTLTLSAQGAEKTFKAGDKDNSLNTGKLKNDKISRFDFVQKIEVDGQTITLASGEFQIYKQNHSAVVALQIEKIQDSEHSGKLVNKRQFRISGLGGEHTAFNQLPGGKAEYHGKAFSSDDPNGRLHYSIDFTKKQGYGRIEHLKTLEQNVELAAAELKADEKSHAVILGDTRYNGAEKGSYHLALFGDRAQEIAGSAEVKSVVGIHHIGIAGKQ

T6: fHbp m002413 (Neisseria meningitidis, designed fHbp …, chimera)
T6 chain: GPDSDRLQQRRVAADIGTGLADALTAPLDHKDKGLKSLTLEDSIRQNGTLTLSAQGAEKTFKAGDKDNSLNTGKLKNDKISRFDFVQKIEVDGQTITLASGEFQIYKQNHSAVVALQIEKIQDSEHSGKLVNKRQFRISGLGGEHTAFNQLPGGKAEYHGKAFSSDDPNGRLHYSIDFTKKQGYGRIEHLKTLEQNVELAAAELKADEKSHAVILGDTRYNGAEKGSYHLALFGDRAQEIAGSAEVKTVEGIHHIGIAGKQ

T7: fHbp m002415 (Neisseria meningitidis, designed fHbp …, chimera)
T7 chain: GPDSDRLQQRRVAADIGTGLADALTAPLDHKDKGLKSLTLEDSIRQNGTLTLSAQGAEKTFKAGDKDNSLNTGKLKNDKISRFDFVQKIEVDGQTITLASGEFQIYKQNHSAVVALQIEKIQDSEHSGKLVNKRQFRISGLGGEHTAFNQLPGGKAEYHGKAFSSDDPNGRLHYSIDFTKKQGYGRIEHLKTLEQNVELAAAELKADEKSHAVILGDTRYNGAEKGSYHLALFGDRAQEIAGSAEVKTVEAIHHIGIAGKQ

T8: fHbp mutant 0021 (Neisseria meningitidis, fHbp v3.28 …, point mutant)
T8 chain: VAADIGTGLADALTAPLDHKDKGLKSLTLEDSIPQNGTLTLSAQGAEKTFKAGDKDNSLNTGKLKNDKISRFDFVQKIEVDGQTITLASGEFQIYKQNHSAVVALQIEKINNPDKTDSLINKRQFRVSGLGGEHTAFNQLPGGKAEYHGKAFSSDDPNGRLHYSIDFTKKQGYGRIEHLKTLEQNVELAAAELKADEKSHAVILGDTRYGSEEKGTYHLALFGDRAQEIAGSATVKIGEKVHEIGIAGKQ

T9: fHbp mutant 0017 (Neisseria meningitidis, fHbp v1.1 mutant, point mutant)
T9 chain: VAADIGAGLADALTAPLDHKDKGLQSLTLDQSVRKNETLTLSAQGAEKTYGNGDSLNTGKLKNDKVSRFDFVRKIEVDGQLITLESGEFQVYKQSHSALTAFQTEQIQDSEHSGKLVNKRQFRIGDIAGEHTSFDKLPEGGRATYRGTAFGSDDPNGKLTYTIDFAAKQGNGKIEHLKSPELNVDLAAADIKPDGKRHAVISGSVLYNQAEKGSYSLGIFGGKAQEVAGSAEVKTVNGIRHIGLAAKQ


Tests used:
Assay in all cases: BLI
Conditions in all cases: both partners purified
fHbp m001927 = molecular target: T1, fHbp m001927
fHbp m001928 = molecular target: T2, fHbp m001928
fHbp m002332 = molecular target: T3, fHbp m002332
fHbp m002389 = molecular target: T4, fHbp m002389
fHbp m002392 = molecular target: T5, fHbp m002392
fHbp m002413 = molecular target: T6, fHbp m002413
fHbp m002415 = molecular target: T7, fHbp m002415
fHbp mutant 0021 = molecular target: T8, fHbp mutant 0021
fHbp mutant 0017 = molecular target: T9, fHbp mutant 0017

Row | Binder | Kd (fHbp m001927) [nM] | koff (fHbp m001927) [s⁻¹] | kon (fHbp m001927) [M⁻¹ s⁻¹] | Kd (fHbp m001928) [nM] | koff (fHbp m001928) [s⁻¹] | kon (fHbp m001928) [M⁻¹ s⁻¹] | Kd (fHbp m002332) [nM] | koff (fHbp m002332) [s⁻¹] | kon (fHbp m002332) [M⁻¹ s⁻¹] | Kd (fHbp m002389) | koff (fHbp m002389) | kon (fHbp m002389) | Kd (fHbp m002392) | koff (fHbp m002392) [s⁻¹] | kon (fHbp m002392) [M⁻¹ s⁻¹] | Kd (fHbp m002413) | koff (fHbp m002413) | kon (fHbp m002413) | Kd (fHbp m002415) [nM] | koff (fHbp m002415) [s⁻¹] | further results
1 | chimeric antibody h12C1 (antibody, V domains shown, also called humanized 12C1; source: Expi293, purified (MabSelect SuRe, SEC); copies: 2 + 2) VH: QVQLQESGPELVKPGASVKISCKASGYSFSDYNMSWVKQSNGKSLEWIGIIDPKYGTINYNQKFKGKATLTVDQASSTAYMQLNSLTSEDSAVYYCVRDYYGSSYFDYWGQGTTLTVSS VL: DIVLTQSPSSIYASLGERVTLTCKASQDIHNYLNWFQQKPGKSPKTLIYRANRLVDGVPSRFSGGGSGQDYSLTISSLEFEDIGIYYCLQYDEFPPTFGGGTRLEIK | 0.38 | 7.94e-05 | 209200 ± 1710 | 55.3 | 0.0146 | 264000 ± 5240 | 1.19 | 0.000253 | 212700 ± 1530 | 1.16 nM | 0.000257 s⁻¹ | 220700 ± 1060 M⁻¹ s⁻¹ | 0.892 nM | 0.000212 | 237100 ± 1550 | 1.1 nM | 0.000237 s⁻¹ | 214700 ± 1140 M⁻¹ s⁻¹ | 66.7 | 0.00939 | kon (fHbp m002415): 141000 ± 2240 M⁻¹ s⁻¹
2 | mAb 4B3 (human) (antibody, V domains shown, also called 4B3-2; source: Expi293, purified (MabSelect SuRe, SEC); copies: 2 + 2) VH: QVQLVQSGGGLVKPGGSLRLSCAASGFPFSSYYMSWIRQAPGKGLEWVSDINNSGNVKEYADFVKGRLTISRDNVKNSMYLHMNSLRVEDTAVYYCARNRGRFDVWGQGTLVTVSA VL: EIVMTQSPGTLSLSPGETATLSCRASQMISSPFLAWYQQRRGQAPRLLIYGASTRATDTPDRFRGSGSGTDFILTISRLEPEDFAVYYCQYYDDSPFTFGQGTKLEIK | 3.64 | 0.000943 | 259300 ± 1550 | 4.25 | 0.00106 | 248300 ± 1560 | 4.04 | 0.00118 | 291800 ± 1150 | 4.01 nM and 3.22 nM | 0.000912 s⁻¹ and 0.00101 s⁻¹ | 227000 M⁻¹ s⁻¹ and 315000 M⁻¹ s⁻¹ | 2.95 nM | 0.00106 | 359400 ± 1640 | 4.57 nM and 3.74 nM | 0.00112 s⁻¹ and 0.00115 s⁻¹ | 245000 M⁻¹ s⁻¹ and 307000 M⁻¹ s⁻¹ | 3.78 | 0.00101 | Kd (fHbp mutant 0021): 1.82 nM; koff (fHbp mutant 0021): 0.00084 s⁻¹; kon (fHbp mutant 0021): 460100 ± 2250 M⁻¹ s⁻¹; Kd (fHbp mutant 0017): 2.98 nM; koff (fHbp mutant 0017): 0.000964 s⁻¹; kon (fHbp mutant 0017): 324100 ± 1980 M⁻¹ s⁻¹; kon (fHbp m002415): 267700 ± 1540 M⁻¹ s⁻¹
3 | chimeric antibody hJAR5 (antibody, V domains shown, also called hJAR5-2; humanized JAR5; source: Expi293, purified (MabSelect SuRe, SEC); copies: 2 + 2) VH: QVQMQQPGAELVKPGASVKLSCKASGYTFISYWMHWVKQRPGRGLEWIGRIAPDTGIIYYNEKFKNKATLTVDTPSSTAYMQLNSLTSEDSAVYYCARYLKYDGSTYRFDYWGQGTTLTVSS VL: DIVMTQAAPSVPVTPGESVSISCRSSKSLLHSNGNTYLFWFLQRPGQSPQLLIYRMSNLASGVPDRFSGSGSGTSFTLRISRVEAEDVGVYYCMQHLEYPYTFGGGTKLEIK | 0.824 |  |  | 0.741 |  |  | 0.662 |  |  | 0.772 nM |  |  | 0.711 nM and 0.689 nM |  |  | 1.09 nM |  |  | 0.664 |  | 
4 | mAb 1E6 (human) (antibody, V domains shown, source: Expi293, purified (MabSelect SuRe, SEC); copies: 2 + 2) VH: EVQLVQSGAEVKKPGSSVKVSCKASGGTVIDYPITWVRQAPGQGLEWVGGFVPLFRTSNYGQKFQGRVTITADKSTSTASMELNSLTSEDTAIYYCARGDTAMGPFDYWGQGTLVTVSS VL: SYVLTQPPSLSVAPGKTATLTCGGNNIAGKTVHWYQQRPGQAPVLVISYDSDRPSGIPERFSGSNSANTATLTISRVEAGDEADYYCQVWDRNSDHWVFGGGTKLTVL | 0.293 | 0.000118 | 402600 ± 1680 | 0.174 | 0.000163 | 937300 ± 2910 | 0.708 | 0.000264 | 373200 ± 1990 | 0.818 nM | 0.000272 s⁻¹ | 332200 ± 1430 M⁻¹ s⁻¹ | 0.515 nM | 0.000157 | 305400 ± 1880 | 0.66 nM | 0.000271 s⁻¹ | 410700 ± 2050 M⁻¹ s⁻¹ | 0.831 | 0.000302 | Kd (fHbp mutant 0021): 0.654 nM; koff (fHbp mutant 0021): 0.000333 s⁻¹; kon (fHbp mutant 0021): 508900 ± 2640 M⁻¹ s⁻¹; Kd (fHbp mutant 0017): 4.23 nM; koff (fHbp mutant 0017): 0.00199 s⁻¹; kon (fHbp mutant 0017): 471400 ± 4100 M⁻¹ s⁻¹; kon (fHbp m002415): 363300 ± 1200 M⁻¹ s⁻¹
